Assay: label from the status in PepcDB records

Sequence	protein production
MATVPSNPAFAPTLSTRGRLNGILFVALFAVAVTQLAAMPAIANLGISPLIVGIVAGALYGNALRDGVPASWAAGINFSARGLLRIAVAFFGLRVSLQEIAEVGWSGLIVSVLVVTSTLLIGLWCGMKVFKLDRDTALLTAAGSAICGAAAVLAFESALRSAPHKSAMAVGSVVLFGTLSMFLYPLAINAGWLHLDTMGAGLLLGGTVHEVAQVVGAASNVSPEATHVATIVKMTRVMLLVPVLLVVGLWISRSRKAGQAQGNGRIAMPWFAFGFLALVLVNSMQVLPGSVTQAVNSLDTFALTMAMTALGMETRFSQIRQAGPRALATGAILNLWLVGGGLAITLGVQKLLG	failed
MATYSLANERLRALEDIEREIGAILQNAGTAILELSKEKTNERLLDRQAAAFTTSVQHVEAELSAQIRYLTQVATGQPHEGSSYSSRKDCQMALKRVDYARLKISDVARTCEQMLEN	failed
MAVDWERRIDFDRLRTQRLTRALDALERSELGALLLFDMNNIRYTTATHIGNWARDKLFRMALLIRGQAPILWDIGSAARLHQMQAPWLPQESWRAGLSTWRGAIDDEVGVQTGNAKKVADLLREHGLANDPVGVDVVELPMLKALEAEGLTIVDGQGLMLDVRSIKTVDEIALLDHAAACVDAAYEELYKFLRVGVKENETVALVNKVLYELGSEEVEAVNAISGERCSPHPHVFSDRMIRPMDTAYFDIVHSYMGYRTCYYRTLNVAGATRAQRDAYKRAREYIDLAISEVKPGVLTSDIVKHFPAAQEFGFASEEEAFGLQYCHGVGLSVWEKPLMSRYHSFDHPVEIKEGMVFALETYWPTADGSSAARIEEEVEVTATGARVITRFPADELLVAGTRYWNGFDFPEIKAPIGRGVASGVAATNGAGAS	failed
MAVFVALGAFLMTLAGGWTAQRVTDRRHLVLGLAGGLMLGVVGMDLLPEALDAAGGKVFGVPAALLLFVAGFLLAHLVERLLAHRQAAHGGAESNGRAPEVGLTAAAAMVGHSAMDGVAIGAAFQVGGGMGLAVAVAVIAHDFADGFNTYTLTALYGNARRKAVIMLVADAVAPVLGAASTLAFTIPERLLGGYLALFGGALLYLAAAEILPEAHHEHPARSTLLCTVAGVGFIWLVVGLAG	failed
MAVIADPETAQGFRLAGLEGYGASSAEEAQSLLETLVERGGYALVAVDEALLSDPERAVERLMRGRDLPVLLPIAGLKEAFQGHDVEGYMRELVRKTIGFDIKLLEHHHHHH	failed
MAVLNLFHIFATTVDSTAVEKNLLIMKFYNREKEIAELKRVQELAFGQNSRMIVVTGRRRIGKTSLIKQALKGTPTVYFFIGRKAESILVADFIKIVRETLSIFIPDGISNFTTLIQYLFEIGKTRSFNIVIDEFQEFYNIRPDVFSDMQNLWDEYRQETKINLVISGSVYSLMQKIFTDHGEPLFGRADNILCLRPFNTKVLKQIMEDFAPGYSNDDLLALYTLTGGIPKYVELFCDNQALSVDRIYDFVFSENSLFIDEGRNLLITEFGKNYGIYFSILLEIANGHYTQGEIESALGGISIGGHLSKLENVYNLITRERPIFAKPGTKKNVRYIIGDNFLNFWFKYIERNRSYIELQNFEDLRQLAKADYQTYSGRVLEKYFKQKLAEEGGFKEIGSWWETKSSANKERLNSFEIDIVALKSSGKKALIAEVKRMPENNYVHSTFMEKVEHLKHKEMAKYDIETRVLGLEDM	failed
MAVNPATGKSDFVMMSEQQELGMGARYNQEILKQFPRYNDEKLQAYVQRVGERVARSSHRSNLQYHFTVIDSPDINAFALPGGYIYIHRGLIAYLGSEAELAAVLGHEVGHVTARHSVRQQSQASAWNILGQAVAIGTGVGAAGDLANVLGTAFVRGYGRDMELEADGLGAQYLARAGYDPTAMIQVVRVLKNQEDFAREEAARNGQAVQAGGYHGLFDTHPDNDRRLQEVVGPARQLANGQQEVGREVFLRHLEGMPFGDSASAGVRRGQNFYHAELDFTLSYPAGWKILNQPSALLGYPADEQSFIGMKLVPHDSRLTPAEFLRKNAGQRLAQEESLKQAGLNGYTAVVPGNPARRVAVIYQGDRAYLFVGVVKVGSLETQDDRFLSVIRSFRPLRDKERALAQPRRLHLVQVKAGQTLEQLAAGGEGSLSDSVARLRLLNDLYPSGEPRPGDWLKVVRLEHHHHHH	failed
MAVNQDTLYVKGDRNVEVTKREVTLGDLVSMECSNRVILPHLKTMKVLKIPENGEKRYVISILKIIACIHEKYPGLEVQNLGETDLIVTYEMQKTPSK	not failed
MAVTDVFARRATLRRSLRLLADFRYEQRDPARFYRTLAADTAAMIGDLWLATHSEPPVGRTLLDVGGGPGYFATAFSDAGVGYIGVEPDPDEMHAAGPAFTGRPGMFVRASGMALPLADDSVDICLSSNVAEHVPRPWQLGTEMLRVTKPGGLVVLSYTVWLGPFGGHEMGLSHYLGGARAAARYVRKHGHPAKNNYGSSLFAVSAAEGLRWAAGTGAALAVFPRYHPRWAWWLTSVPVLREFLVSNLVLVLTP	failed
MAVYMLNMGIVFVWSWFAKMYGREDHRLPTGYRPNAILTVVPLASLIIVAGLRYKVGTDYHTYMLLYELAGKYNSIWEIFGFGTGKSSTDPGFTALLWILNQISADPALMFAVVAAITYIYIVKTLYVYGRPFELSMFLFIGMFHYYASFNGIRQYMAAAILFWAVRYLIDGKLVRYMIVVLICSLFHSSALIMIPVYFIVRRKAWSPVLWCLMLVFLAGTFLYQKFLSVFLVVLENSQYGHYEEWLMKNTNGMNVIKIIVLLLPLALAFCFREQLRKRWPEVDYIVNLCLIGFLFGILATKDVIFARFNIYFGLYQLILVPYFVRIFEPKSNALLYVLILICYFLYSFMLMPFDSSVLPYRTIFER	failed
MAWHAAEDRSLGFKETYLMQRFGAGVVIDDFELVEKLPSGGMASLWRATNPRYDFPLVLKIPFLDPGADVSVILGFEAEELILKRLSGPHVPRFAASGSLAQVPYIAMEFVVGKGLADIVGNAPLPMDEVARIGIEIATALAALHRQKVVHLDLKPENVVLANRGAVLLDFGLARHEELPDFLGAESSVPMGTAAYISPEQVLGERSDPASDLFALGCILFQLATGEEPFGRPATLAGMKRRLYHAPRSPRDINDAIPRWLEAIILKCMEVDRSQRYIEAAHILSDLRSPDQVVVAKRKPRNEGGWAAITSLFRKTDDRSLVGRASSTRTQAGPSIVLAAVDLANGTDALAGEVLNETARVLASREDSWLACVTVLRTEIIGDTPATDETGRSVYLKRLVALKDWAYPLHLPEDRISYHVLEAVSPADAILTYAEHNDVGHIVVGARASSAIRRHLGSVSTKVVAQALCSVSVVRLKAVEEQQRRPL	failed
MAYGKAHLEAQLKRALAEEIQALEDPRLFLLTVEAVRLSKDGSVLSVYVEAFREEEGALRALSRAERRLVAALARRVRMRRLPRLEFLPWRASPA	not failed
MAYIYGFRTLDRRVFYLALSRLIRASGRVSSFIFLPLIFIEIYSISFLITGLILGSSAIAMAFVQYYSGRWTDRIGRRFFLIVIPIPAAVFYFLMFTTVYLHMSVILLIIFWYGTIITNSLQYPAIEASVADVTSTSERLSGYTLIRIMANLGAAVGPLAGGFLAGINFSYIFLLASIFTVIELFILYYNVRETFLPARAIAEKIKLKIFKTDRFFFLFTLVGVFLGFTLRQNGPTLTVYAFDLKNLPLMDIGYLYSLNGIVVIALQMPILRLMSSRSNPVFWRGIGTIYYSIGFVILGIAPTFLYILLAMFIFTVGEDFMSPTTQTIITTLAPAEKKGSYIGSYNLLTSFGRFFGTIFGLYFLFIYQKTTFTFWIIIATSTGVIGLLYIFMSESFIKRTSKIATLPGKA	failed
MAYTIGVDFGTLSGRAVLVHVQTGEELAAAVKEYRHAVIDTVLPKTGQKLPRDWALQHPADYLEVLETTIPSLLEQTGVDPKDIIGIGIDFTACTILPIDSSGQPLCMLPEYEEEPHSYVKLWKHHAAQKHADRLNQIAEEEGEAFLQRYGGKISSEWMIPKVMQIAEEAPHIYEAADRIIEAADWIVYQLCGSLKRSNCTAGYKAMWSEKAGYPSDDFFEKLNPSMKTITKDKLSGSIHSVGEKAGSLTEKMAKLTGLLPGTAVAVANVDAHVSVPAVGITEPGKMLMIMGTSTCHVLLGEEVHIVPGMCGVVDNGILPGYAGYEAGQSCVGDHFDWFVKTCVPPAYQEEAKEKNIGVHELLSEKANHQAPGESGLLALDWWNGNRSTLVDADLTGMLLGMTLLTKPEEIYRALVEATAYGTRMIIETFKESGVPIEELFAAGGIAEKNPFVMQIYADVTNMDIKISGSPQAPALGSAIFGALAAGKEKGGYDDIKKAAANMGKLKDITYTPNAENAAVYEKLYAEYKELVHYFGKENHVMKRLKTIKNLQFSSAAKK	not failed
MAYTTTVKLDGDTKTYTLSPTVKKYTLMDLGFVKGRSGAFSFERSLDPTSPYQAAFKLKMTVNADLTGFKMTTVTGNGVQRANIFKNDAHPEAVEQLRYILANFIERDILTTD	not failed
MCDAHLRGPSGIITSPNFPIQYDNNAHCVWIITALNPSKAGGDPGNIQCNKEGLSVETQSLRLRNRSCLLGNSKDNGCCVPNPVHGTGLQVIKLAFEEFDLERGYDTLTVGDGGQDGDQKTVLYILTGTSVPDLIVSTNHQMWLLFQTDGSGSSLGFKASYEEIEQGSCGDPGIPAYGRREGSRFHHGDTLKFECQPAFELVGQKAITCQKNNQWSAKKPGCVCK	failed
MCDRHQKLIRATDKPNFFGIDHYGFPEAGEHPADPPGYYPEYFSSERFQRLGYHVEELRGGFYWVTSGGYDAAFVVTSDGVVAIDAPPTIGENMLAAIEDVTDKPVTHLIYSHWHTDHIGAASVFGPNVEIVAHDITKELLERFPDPNRPVPTVTFDKDHLLVVGGVTLELSYKGENHCPGNIFIYAPAQKVLTVIDIVSPGSATFMHCDASQNITGWYEAQKQLMEYEFDFLVAGHHMKYGTPETVAASIEYFQDVLDGAQAAVDRFSRSDALVSILEGAGWDQVFSGTENWINSMANFATKYVLEKKSSNGQLWSERLAGVTTQTKYHAYTVLESIRLERPRPNYRLRGENPPPFLT	failed
MCDRTSKNENRILTISALLASGFAAGGMVLGLLVGSIVIVFDGVYSLVSLLLTLLSLAASSYISKPSKSVFPFGKAVLEPIVIAIKAAVILVVVCFSLYSAISALMTGGREVDTSIATIFGLVNVIGCGYAWWFMAKKSRRFSSGLIDAEKKQWQMDTLLSVAVTVGFIAAWLVSLTPFAHYAVYADPMMMLLMGFYFLKVPFDMLCGALRELLMMTPSKELCQVVGNDVLEIEKVSDHQLKLAGITKVGQELRVNIDLHVDDDMIELDTLEQTRKQLTTRLSKHRFKLQLNLNVANC	failed
MCFPYNKTVAMLAVLMLSGCEDQAALRNADNPPSPPAARMTEFGPGTEDATITQHPYMDNRHAINEGKRLYSWFNCTGCHAHGGGGMGPPLMDKQWIYGSEPAQIFASIMEGRPNGMPAFHGKIPEQEVWKIVAYVRSLGGLSKDLPAGASSRPLQEQAESDKREVKTP	failed
